These results are taken from patent US20170334973A1 (published 2017).

T1: EBOV GPcl (Ebola virus (EBOV), UniProt Q05320 33-200; Q05320 502-632)
T1 chain 1: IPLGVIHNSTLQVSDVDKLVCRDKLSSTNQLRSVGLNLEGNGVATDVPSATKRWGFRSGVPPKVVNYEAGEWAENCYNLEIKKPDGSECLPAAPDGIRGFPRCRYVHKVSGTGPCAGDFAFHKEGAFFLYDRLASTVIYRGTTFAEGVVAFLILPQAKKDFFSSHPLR
T1 chain 2: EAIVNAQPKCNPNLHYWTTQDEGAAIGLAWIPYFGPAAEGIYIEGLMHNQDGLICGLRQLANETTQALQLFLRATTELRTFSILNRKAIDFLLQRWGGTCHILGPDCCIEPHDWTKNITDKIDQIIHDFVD

T2: EBOV soluble GP (sGP) (Ebola virus (EBOV), UniProt P60170 33-324)
T2 chain: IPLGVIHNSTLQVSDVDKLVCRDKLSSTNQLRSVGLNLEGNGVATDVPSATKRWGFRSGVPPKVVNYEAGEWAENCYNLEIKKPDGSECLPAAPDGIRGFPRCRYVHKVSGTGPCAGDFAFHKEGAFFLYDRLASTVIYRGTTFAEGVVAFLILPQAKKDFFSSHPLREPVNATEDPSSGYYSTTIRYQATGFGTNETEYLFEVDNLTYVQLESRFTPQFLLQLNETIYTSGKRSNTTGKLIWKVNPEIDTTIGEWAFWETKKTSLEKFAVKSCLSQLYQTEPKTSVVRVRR

B1: FVM02P (antibody, V domains shown)
VH: EVQLVESGGGLVQPGGSLRLSCAASGFTGFTFSDYAFYWVRQAPGKGLEWVGFIRGKAYGGTADYAASVKGRFTISRDNSKNTAYLQMSSLKTEDSAVYYCTSQGVTVATPYHWGQGVLVTVSS
VL: DIVLTQSPLSLPVTPGEPASISCRSSQSLLHSGGKTYLYWYLQKPGQSPQLLIHEVSNRASGVPDRFSGSGSGTDFTLKISRVEAEDVGVYYCMQGIQLPLTFGGGTKVEIKR
B2: FVM04 (antibody, V domains shown)
VH: EVQLVQSGGGLVQPGGSMRLSCEASGLSLSDYFMHWVRQAQGKGLEWIGLIQTKAFTYKTEYPAAVKGRFTISRDDSKNTLYLQMSSLKPEDTALYYCIAVTPDFYYWGQGVLVTVSS
VL: DVVMTQSPSFLSASVGDRVTITCRASQDITINLNWFQHKPGKAPKRLIYVASRLERGVPSRFSGSGSGTEFTLTISSLQPEDFATYYCQQYNNYPLTFGPGTKLDIKR
B3: FVM01P (antibody, V domains shown)
VH: QVQLQESGPGLVKPSETLSLTCTVSGASISNYRWNWIRQPPGKGLEWIGEINGYSGSTNYNPSLKSRVTISKDASKNQFSLKLTSVTAADTAVYYCPIIGGFTLEWFDVWGPGVLVTVSS
VL: DVVLTQSPSSLSASVGDRVTITCRASQGIRNYLNWYQQKPRKAPKLLIYAASSLQSGVPSRFSGSGSGTEFTLTISSLQAEDFATYYCLQGYRTPFTFGPGTKLDIKR
B4: FVM13 (antibody, V domains shown)
VH: EVQLVQSGAEVKRPGESLKISCKTSGYTFTSSWISWVRQMPGKGLEWLGSIYPGDSDTRYNPSFQGHVTISADTSIITTHLQWSSLKASDTATYYCVKGSETWGQGVLVTVSS
VL: KPMLTQPTSLSASPGASASLTCTFSGGINVAGYNILWYQQKAGSPPRYLLRYKSDSTKDQGSGVPSRFSGSKDASANTGILRISGLQSEDEADYYCAIGHSSGWIFGGGTRLTVL
B5: FVM20 (antibody, V domains shown)
VH: EVQLVESGAEVKRPGESLTISCKTSGYSFTGSWISWVRQMPGKGLEWLGSIYPGDSETKYNPSFQGHVTISADKSVTTTYLKWSSLKASDTATYYCVKGSETWGQGVLVTVSS
VL: B4 VL with K1N, P2F, P7S, T8A, N34H, L36F, K41N, A42P, T57E
B6: FVM09 (antibody, V domains shown)
VH: B5 VH with E6Q, G31D, I34V, S35A
VL: B4 VL with K1Q, P2L, M3V, T8A

Substitutions are numbered along the chain they refer to.

For one experiment, the target named is T1, EBOV GPcl. The experiment in a line: ELISA.
On to B1, for which the 50% effective concentration (EC50) (as a rule, the midpoint of the concentration-response curve) came to 5 ng/mL.
Still for that read-out and setting: the same measure for B2: 8 ng/mL; for B3: 5 ng/mL.
In turn, B4 displayed an EC50 greater than 10000 ng/mL.
Take B5: the EC50 is greater than 10000 ng/mL.

A further experiment concerns the target T2, EBOV soluble GP (sGP). In words: ELISA. In general terms: ELISA stands for enzyme-linked immunosorbent assay.
Molecule B2 displayed an EC50 of 7 ng/mL.
As to B3, the EC50 stood at 5 ng/mL.
As for B4, the EC50 worked out at 5 ng/mL.
Still for that read-out and setting: the same measure for B5: 23 ng/mL; for B6: 17 ng/mL.

The target in another experiment is EBOV GP[change] (Ebola virus (EBOV), UniProt Q05320). In words: ELISA.
The molecule B1 yielded a half-maximal effective concentration (EC50) of 10 ng/mL.
The molecule B2 registered an EC50 of 12 ng/mL.
B3 showed an EC50 of 9 ng/mL.
For B4, the response was half-maximal at 3 ng/mL (EC50).
The molecule B5 registered an EC50 of 7 ng/mL.
On the same count and under the same terms, the same measure for B6: 5 ng/mL.
